Experimental data taken from PMC3744807.

Molecular target: PARP-1 F1+F2 (UniProt P09874 1-214)
Test: pull-down

PARP-1 F1+F2, sequence (P09874 1-214): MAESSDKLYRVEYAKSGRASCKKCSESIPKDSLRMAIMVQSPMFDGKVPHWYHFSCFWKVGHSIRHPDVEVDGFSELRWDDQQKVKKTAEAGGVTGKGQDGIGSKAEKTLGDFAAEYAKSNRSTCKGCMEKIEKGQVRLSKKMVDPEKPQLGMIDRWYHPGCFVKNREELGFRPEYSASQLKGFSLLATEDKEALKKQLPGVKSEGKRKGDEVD

B1: 15 bp duplex, biotinylated (dsDNA)
DNA 1: ACTGCGTTTATGTAT
DNA 2: ATACATAAACGCAGT
- binding result: binds
